# Test results: FireProtDB (doi:10.1021/bi0015717)
# Conditions: Homo sapiens; pH 2.7; Thermal; DSC; glycine-HCl 0.05 M; reversible: yes; whole UniProt chain shown
protein,measurement,value
"Lysozyme C wild type, P61626 (protein) MKALIVLGLVLLSVTVQGKVFERCELARTLKRLGMDGYRGISLANWMCLAKWESGYNTRATNYNAGDRSTDYGIFQINSRYWCNDGKTPGAVNACHLSCSALLQDNIADAVACAKRVVRDPQGIRAWVAWRNRCQNRDVRQYVQGCGV",Tm,64.9 °C
same,heat capacity change of unfolding,1.58 kcal/mol/K
same,unfolding enthalpy (calorimetric),114 kcal/mol
